Laboratory results from paper PMC3026807.

Biological target: Arg224 (UniProt position 224, YHALYRYFVEL)
Assay: electrophysiology

| Substance | pKa (Bath (mM): 67.5 Na2SO4, 4 KCl, 1 K gluconate, 2 CaCl2, 1 MgCl2, 105 sucrose (standard solution). The article does not state explicitly which bath was used for Figure 5. Pipette: 140 mM KCl., 10 mM Hepes/Tris, MES for pH 5.0-6.5, AMPSO for pH 8.5-9.0, CAPS for pH 9.5-11.0, concatenated WT-WT channel, pHo gating) | pKa (pHo-gated channel, closed to open on alkalinization, non-concatenated WT, cited from earlier work) |
| --- | --- | --- |
| TASK-2 WT-WT concatenated tandem dimer (Mus musculus; deletion of the C-terminal 148 residues (after V354) in the first protomer; insertion of L355-D356 linker; no substitution at R224 in either protomer) | 8.2±0.15 | – |
| TASK-2 (K2P5.1, KCNK5) two-pore-domain potassium channel (Mus musculus) | – | 8.0 |
